From the supplement of paper PMC9170038

System: K4 kissing-loop RNA reporter
Experiment: apparent KD of K4 kissing-loop reporter; higher = weaker reporter binding
Conditions: Eterna round: R107
Experimental: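 RNA-MaP round R107: designed RNA switches with theophylline, tryptophan, arginine or FMN aptamers are transcribed on-chip within common flanks. They are titrated with a labelled K4 kissing-loop RNA reporter in RNA-MaP buffer (100 mM Tris pH 7.5, 80 mM KCl, 4 mM MgCl2), without ligand or with the indicated ligand. Median apparent KD per design.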

[1] = input ligand: theophylline 20 uM
[2] = input ligand: tryptophan 2.4 mM
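Further: bound reporter read as fluorescence of individual clusters on recovered sequencing chips by microscopy, with normalized cluster intensities fitted with a binding model.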

Sequence	apparent KD of K4 kissing-loop reporter (input ligand: FMN 200 uM) [µM]	apparent KD of K4 kissing-loop reporter (input ligand: arginine 13.2 mM) [µM]	apparent KD of K4 kissing-loop reporter (input ligand: none) [µM]	apparent KD of K4 kissing-loop reporter [1] [µM]	apparent KD of K4 kissing-loop reporter [2] [µM]
UGGCGAGUGAUGUUCGUUGUUGUAGUGUGUCGAGGACCGGUACGGCCGCCACUCGAGUUGGUUGUUGUUGUUGCUGUUGUUGCUG [#03 K4 Tryptophan A Same State]	0.196	0.158	0.181	0.157	0.099
AAUACGUUCACGGCCGCCACUGAAUAAUUGGUAAGUAGUGAUGUUACUUUACAUAUCUUAUUUAACAGGACCGGGUGAUCGUUUA [JR_Nu_ExcTryptoB_Sub028]	0.13	0.108	0.122	0.105	0.142
GCCGUAGAUGGAAGGAGCGUGUCAAAGUGAUGUUUUGAUUAACUCCCUACGGGAUAGAUGACACAGGUAGGUCGCCAUCUACGGC	0.0652	0.0793	0.0869	0.115	0.0653
CCAUUCUGUUACGAUACCAGUCAAAUAUAUUUGAUCAAUACCCUCGCCGAGUGAUGUUCGGACCCUUGGCAGCGUCUGGGACAGG [ccdfmullin]	0.537	0.561	0.71	0.544	0.596
UGUACCGAGUUAGGAUAUGUCGUCGAAAGACGAAAUGGAGUGAUGUUCCUUAAACUGCGAAAGCAGACAGAAGGAACUUGGUACU [FmnBS 29 U11+A75]	0.19	0.627	0.544	0.546	0.476
UGAUGUUUAGUUCACCCAGUGAUGUUGGAAGGAGCGUGCGAAAGCACAGGUAGGUCGCCAACCUAAAAGUGUCUUGAUUAUCUAA [JR_Nu_ExcArginiA_Sub028]	0.352	0.317	0.444	0.46	0.289
UUGGCCCGGCCGGAAGGCCGGGCCUGCGAGCGAGGACCGGUACGGCCGCCACUCGGCGCAGUGAUGUUGCGUGGCCGCAAGGCCG [#2 Exclusion - Tryptophan A Attempt #1 (HarryS)]	0.37	0.337	0.439	0.581	0.874
AGAAGAUAUCGUGAUACCAGACCGCGGAGAGGCCGGAAGAGGGUAGUGAUGUUGCAUGCAGUCCCUUGGCAGCACUGACAGUAUU [theeternabot_sameState_KL_Theo_B_40]	0.754	0.287	0.694	0.539	0.601
GGGAAGAAGGCGGCCGCCACUGCAGAAGAGACAGAGAGGGUAGAAGAGGAGUGAUGUUCCAAGAACAGGACCGGGCCAAGAAGGG [whbob_SS_Tryp_B_t30]	0.226	0.172	0.226	0.237	0.137
GGUGCGGGCUCGGCCGCCACUCCCUCCUGCCGUAAGGUGGGAUACCGAGUGAUGUUCGGUUGGAGGAGGACCGGGAGCCCGUGCC [#2 Exclusion - Tryptophan B Attempt #16 (HarryS)]	0.131	0.102	0.114	0.11	0.125
CCCUCACGAGUGAUGUUCGUAGGGUACAGUCAGGAUAUCAUGCGGUUGAGAAGGGACAGAAAGGGCGGCCACGGGUUGCUCAUUU [Issogeso]	0.2	0.352	0.343	0.492	0.53
AUUUGUUUAUGCGAUACCAGACUAAGCAGUGAUGUUGCUUUUAUUUUUGAAUUUUAAAUAGUCCCUUGGCAGCGCUAUGUCUGUA [#06 K4 Theophylline B Same State]	0.127	0.2	0.183	0.217	0.119
UAGUGAAUAGAAGGAUAUUGAUAUGAAAGAUGCAGUGAUGUUGCCCGUAGCAGUCAGUAAUACGUGCAAGAAGGUCUGUGCGCGA [theeternabot_exclusion_KL_FMN_B_3]	0.0652	0.0954	0.0692	0.127	0.0624
GGCCGGAAGGCGAGCGCUCCCACUCCGGAAGGAGCGCCCGGAAGGGCAGGUAGGUCGCCGGAGUGAUGUUCCGGUGGAGGGCUCG [#2 Exclusion - Arginine A Attempt #19 (Inspired by Omei)]	0.141	0.12	0.0804	0.271	0.0702
UCAUAUACCAGAAGGAGCGUGCAGGACGAAUUAAUCAUCGACCUUAGUGAUGUUAAGGACGCACAGGUAGGUCGCUGGUAUAUGA [Arg B SS t4]	0.445	0.431	0.479	0.484	0.439
UUUUUGGAGAAUUAUAGUGAUGUUAUGAAGGAGGAUAUCUGGAGAUGGAGAAGGCCUAGUGGCUCAGCCCUCGAGGGUGGGUGGG [ExFMNA.aC]	0.646	0.626	0.441	0.778	0.354
CCUGAUCCUAGUGAUGUUAGGUCCAACGGCCGAGGACCGGUACGGCCGCCACUCGUCAAUUGGAAACAGCCCACGGGCACCGGGU [theeternabot_sameState_KL_Trp_A_19]	0.825	0.502	0.906	0.814	0.783
UGAUACCAGACGGCCGCCACUCCUGCAGUCAAAGACUGCUAAGGAAUAUUCGUCCAGUGAUGUUGGAGGACCGGGUCUGGUAUCU [TrypBX 12 #SwitchBubble #Palindromic #StaticStem]	1.37	0.991	1.38	0.896	0.979
UUUAUAAGGUCGGCCGCCACUGGAUUUAUGUUUGUUUCGUCUGGAUCAAAGUGAUGUUUUGAGUCCAGGACCGGGACAUUUGUUA [whbob_Ex_Tryp_B_w39]	0.0866	0.0765	0.0793	0.0756	0.0905
GUUAUAUAAAUAAGAAAUAAAAUAAGGGAAGGAGCGCCGAGAAAGGCAGGUAGGUCGCCCAGUGAUGUUGGGAUUAAUUAAUUAG	0.045	0.0337	0.0393	0.0439	0.0371
CUUAAGAUAUGAGUGAUGUUUAUGUCCGAAGGAGCGUGCGAAAGUACAGGUAGGUCGCGGAUGUGAGUGAUGUUUAUGUAAGCGA [KL-XArg-A14 #analogue]	0.121	0.0371	0.12	0.075	0.103

Sequence	apparent KD of K4 kissing-loop reporter (input ligand: FMN 200 uM) [µM]	apparent KD of K4 kissing-loop reporter (input ligand: arginine 13.2 mM) [µM]	apparent KD of K4 kissing-loop reporter (input ligand: none) [µM]	apparent KD of K4 kissing-loop reporter [1] [µM]	apparent KD of K4 kissing-loop reporter [2] [µM]
UUUGGUUUCUCGGCCGCCACUCGUUGUCUAUGGGCUUCAGGGAUAUAGUGAUGUUAUGUAUAGAAGAGGACCGGGAGAAGGUUUU [ExTryptoB.Dv]	0.427	0.0779	0.683	0.0423	0.161
UAUUUGAUGUCAGGAUAUCGUAUACGAGUGAUGUUCGUAUUUCUACUAUAGAUUAUUUAAAUUUUUCGAGAAGGGACAACAUUUA [#04 K4 FMN B Same State]	0.151	0.0933	0.115	0.14	0.122
UGUCAUUGGUCGGCCGCCACUAGGACCGGGUUUUACCUAGUGAUGUUAGUAUAAACGGCCGCCACUAGGACCGGGACCGAUGACU [KL-SSTryp-B24 #DoubleAptamer]	0.846	0.447	0.547	0.434	0.122
AAAAUAAAUCAGUGAUGUUGGUGUCCAGAUACCAGCGACGAAAGUCGCCCUUGGCAGCUGUGGACGUACAAAAUAAGUACGUCCU [MatMod 22 - Jieux - Same State - Theophylline A]	0.61	0.316	0.611	0.335	0.465
AUUUGUUUAUGUGAUACCAGACUUUGCAGUGAUGUUGCAUUUAUUUUAGAAUAUAAUUUAGUCCCUUGGCAGCACUAUGUAUUUA [JR_SSTheophyB_Sub008]	0.0671	0.11	0.0738	0.109	0.0634
UAAUCCUAGUGAUAAUAAUCAAGUGGUGGACGAGGACCGGUACGGCCGCCACUCGAAAAUGCAGUGAUGUUGUAAUCCGGAUAAU [Exclusion - Tryptophan A (Freestyle 4)]	0.627	0.701	0.878	0.771	0.581
UAACGACUCGGAAGGAGCGCGGUUUUAAAAGACUAAGGCCGAGUGAUGUUCGGAGAAGUCCCGCAGGUAGGUCGCCGGGUUGUGG [Ceororedar]	0.124	0.138	0.13	0.199	0.148
ACGGAGUGAUGUUCCGGCCUCCCAGCAGAUACCAGCAGUCGCGAUUGCCCUUGGCAGCUGUCCGCGGCAUCCACUUGUAGCGGUA [theeternabot_exclusion_KL_Theo_A_12]	0.223	0.173	0.204	0.222	0.197
AUUAAUAACAGAGGAUAUGCAUUUUUAUUAUUUUUUAUUAUUAUAUGCAGUGAUGUUGCAUAUUAAGCAGAAGGCUGAUUUAUUU [JR_SSFMNB_Sub013]	0.117	0.105	0.079	0.11	0.102
AAUAAAAUCACGGCCGCCACUGAUUUUUUUAUUAGGAGUGAUGUUCCUUUGUCUAUAUACCUUAACAGGACCGGGUGAAUAUUUA [JR_SSTryptoB_Sub022]	0.0543	0.0934	0.0674	0.0955	0.0521
CGAAGAGAGUGAUGUUCUCUAGGCAAAAGAAAGGAUAUAAUGUUUGUUAGAAGGUUCGGAAAAUGGAACGUCGGCCCGUACAACC [theeternabot_exclusion_KL_FMN_A_18]	0.151	0.129	0.139	0.127	0.121
AGUGCACUGUCAGGAUAUAUACAGUGAUGUUGUGUAUGUCAGCAAGUCAAAGACUUGCUAUUUUGUGUAGAAGGGACUGUGUACA [whbob_Ex_FMNB__2th221]	0.385	0.156	0.176	0.155	0.177
AAGAAGGUCAAAGACCUUCGUGCUCGUGAUACCAGUCGCGAAAGCGGCCCUUGGCAGCACGGCAGUGAUGUUGCCAAGAGCACAA [#13 K4 Theophylline A Same State]	0.318	0.0866	0.19	0.413	0.211
UCUGGUAUAUCUGAUACCAGAGUAUAGUAUCAAUUGCAUAUCCGCAGUGAUGUUGCGGAACUCCCUUGGCAGCAGAUCUAUCUCU [Same State Theophylline B GF 26]	0.0716	0.0906	0.0818	0.0868	0.07
GUGGGCUCGGGAGGAUAUGAGUCUAGUGAUGUUAGGCGGUCCAUGCGCGUGGCGCGUUAUGCCCUUUUAGAAGGCCCGAGCCCUC [#2 Exclusion - FMN B Attempt #24 (HarryS)]	0.0998	0.0688	0.0901	0.0864	0.0853
AGUCGCAGUGAUGUUGCGAUUCCGUUGAGGGAGGAUAUUGGUAAUACAAGAAGGCCCGGCUACGGGAGAUGUUAGCAAUAGGGCC [Exclusion FMN A GF20]	0.092	0.0945	0.063	0.065	0.0639
AGUGUUAGGUUAGAUACCAGCCGUCUAUGGAUAAUCCUCAGACCGCCAGUGAUGUUGGCAGGCCCUUGGCAGCUAACAGAACAGA [Reinonor]	0.202	0.218	0.24	0.164	0.213
AGGUAGUCCCUUGUUGUCAUCGAAGAUGAACGAGGACCGGUACGGCCGCCACUCGGAGUGAUGUUCCGAUGGCUGCAAAAUAAAA [MatMod 23 - Jieux - Exclusion - Tryptophan A]	0.108	0.089	0.0972	0.0859	0.103
GGCGAUGAGUGAUGUUCAAAGAAUAAUGAUACCAGCUGAUGUCGAAGCCCUUGGCAGCAUAGAUACACCAAGUGAUGGUAAUGCC [Default title]	0.193	0.209	0.237	0.235	0.143
GCGUGCAAGUCAUGAUGCCCUAUCAGGACUAAGGAUAUAGCGUGACCUAGAAGGUAGCUAGUGAUGUUGGCUGACAUGCUACUGC [theeternabot_exclusion_KL_FMN_A_49]	0.482	0.227	0.367	0.376	0.376
